The source of these data is paper PMC11480449, “Adaptive laboratory evolution recruits the promiscuity of succinate semialdehyde dehydrogenase to repair different metabolic deficiencies” (Nature Communications, 2024).

For orientation: Km means the substrate concentration at which the rate is half of its maximum. For orientation: kcat means the number of substrate molecules converted per active site and unit of time at saturation. A word on the kcat/Km: it is the turnover number divided by the Michaelis constant.

The target of series [1] is T1, ThrA (bifunctional aspartokinase (AK)/homoserine dehydrogenase (HDH) 1) (Escherichia coli, UniProt P00561).
T1 sequence (P00561 1-820): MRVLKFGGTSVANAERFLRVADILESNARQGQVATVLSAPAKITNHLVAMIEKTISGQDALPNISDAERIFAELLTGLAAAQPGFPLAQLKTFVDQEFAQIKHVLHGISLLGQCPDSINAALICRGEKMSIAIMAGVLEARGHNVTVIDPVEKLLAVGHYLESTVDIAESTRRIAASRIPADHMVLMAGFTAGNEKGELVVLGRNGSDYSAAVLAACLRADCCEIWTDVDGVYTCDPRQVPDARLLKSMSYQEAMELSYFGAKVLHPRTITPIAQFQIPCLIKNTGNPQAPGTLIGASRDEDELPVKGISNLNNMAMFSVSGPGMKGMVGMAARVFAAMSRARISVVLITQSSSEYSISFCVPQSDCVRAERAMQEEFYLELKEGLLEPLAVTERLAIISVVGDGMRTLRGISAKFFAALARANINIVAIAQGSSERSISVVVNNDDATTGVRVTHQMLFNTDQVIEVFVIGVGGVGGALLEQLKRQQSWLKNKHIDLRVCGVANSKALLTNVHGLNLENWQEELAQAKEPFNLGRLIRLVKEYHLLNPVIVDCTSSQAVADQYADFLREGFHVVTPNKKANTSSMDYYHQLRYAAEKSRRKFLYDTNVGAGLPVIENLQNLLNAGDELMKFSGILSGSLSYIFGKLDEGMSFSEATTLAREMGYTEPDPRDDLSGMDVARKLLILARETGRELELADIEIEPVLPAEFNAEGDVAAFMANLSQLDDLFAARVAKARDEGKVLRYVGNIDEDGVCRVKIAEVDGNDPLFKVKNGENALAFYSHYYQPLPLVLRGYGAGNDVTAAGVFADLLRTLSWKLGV
Briefly: aspartate kinase, PK/LDH-coupled, NADH at […] nm. It counts as biochemical. As to conditions: 4 mM ATP, 5 mM L-aspartate, 5 mM MgCl2, pH 8.0, 37 °C.

Series [2] addresses T2, Sad (NAD(P)+-dependent succinate semialdehyde dehydrogenase, SSADH) (Escherichia coli, UniProt P76149, Q262R).
T2 construct: dimeric on size exclusion
Briefly: NADH formation at […] nm, substrate-inhibition fit. It counts as biochemical. Conditions: 1 mM NAD+, 75 mM HEPES pH 8.0, 37 °C.

For series [3], the target named is T2, Sad (NAD(P)+-dependent succinate semialdehyde dehydrogenase, SSADH). Briefly: X-ray crystallography. It counts as binding. As to conditions: 5 mM NAD+, 1 mM TCEP.
Series [4] has as its target T3, Sad (NAD(P)+-dependent succinate semialdehyde dehydrogenase, SSADH) (Escherichia coli, UniProt P76149).
T3 construct: dimeric on size exclusion
Briefly: X-ray crystallography. In kind it is binding.

Series [5] has as its target T3, Sad (NAD(P)+-dependent succinate semialdehyde dehydrogenase, SSADH). Briefly: NADH formation at […] nm, substrate-inhibition fit. It counts as biochemical. As to conditions: 1 mM NAD+, 75 mM HEPES pH 8.0, 37 °C.
Series [6] addresses T1, ThrA (bifunctional aspartokinase (AK)/homoserine dehydrogenase (HDH) 1). Briefly: homoserine dehydrogenase, NADPH consumption at […] nm. In kind it is biochemical. As to conditions: 0.2 mM NADPH, 1 mM substrate, 100 mM KCl, pH 8.0, 37 °C.
Substrate in series [7]: O=CCCC(=O)O
Briefly: purified protein. It counts as biochemical, Escherichia coli. Conditions: 75 mM HEPES pH 8.0, 37 °C.

Substrate in series [8]: O=C[C@H](O)COP(=O)(O)O
Briefly: purified protein. It counts as biochemical, Escherichia coli. Conditions: 1 mM NAD+, 75 mM HEPES pH 8.0, 37 °C.

Substrate in series [9]: O=C[C@H](O)[C@H](O)COP(=O)(O)O
Briefly: purified protein. It counts as biochemical, Escherichia coli. As to conditions: 1 mM NAD+, 75 mM HEPES pH 8.0, 37 °C.

Series [10] deals with the molecule itself. Briefly: SEC; HiLoad 16/600 Superdex 200 pg, 20 mM HEPES-KOH, 50 mM KCl, pH 7.5; preparative step after affinity purification, before crystallisation. Background: Size exclusion chromatography separates by hydrodynamic size, large species first.

Residue numbers refer to the chain shown, from its start. Names may count otherwise.

T2 sequence (P76149 whole entry Q262R): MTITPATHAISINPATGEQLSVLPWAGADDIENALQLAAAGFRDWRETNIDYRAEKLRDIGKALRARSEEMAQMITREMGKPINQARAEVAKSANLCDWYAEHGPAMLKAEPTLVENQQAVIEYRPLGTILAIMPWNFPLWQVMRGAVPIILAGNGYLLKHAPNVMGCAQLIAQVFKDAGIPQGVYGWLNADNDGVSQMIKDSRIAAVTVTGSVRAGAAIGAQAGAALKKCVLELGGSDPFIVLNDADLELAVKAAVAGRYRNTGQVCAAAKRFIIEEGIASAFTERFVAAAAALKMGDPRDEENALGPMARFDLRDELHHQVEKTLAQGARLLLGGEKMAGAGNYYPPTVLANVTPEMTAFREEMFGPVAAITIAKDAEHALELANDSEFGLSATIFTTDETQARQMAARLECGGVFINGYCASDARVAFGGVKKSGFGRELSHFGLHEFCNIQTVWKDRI

On to `N[C@@H](CC(=O)O)C(=O)O` [L-aspartate], for which, in series [1], the “aspartate kinase, PK/LDH-coupled, NADH at 340 nm” value was “Aspartate kinase activities of ThrA variants were determined”.

`O=C[C@H](O)COP(=O)(O)O` [glyceraldehyde 3-phosphate]: the “App. Ki” value in series [2] is given as 1.4 ± 0.3 mM.

Consider `O=C[C@H](O)[C@H](O)COP(=O)(O)O` [erythrose 4-phosphate], for which the “App. Ki” value in series [2] was found to be 7.4 ± 3.3 mM.

Regarding `NC(=O)c1ccc[n+]([C@@H]2O[C@H](COP(=O)(O)OP(=O)(O)OC[C@H]3O[C@@H](n4cnc5c(N)ncnc54)[C@H](O)[C@@H]3O)[C@@H](O)[C@H]2O)c1` [NAD^+], the X-ray crystallography result was “crystal structures of both Sad WT and Q262R variants with bound NAD^+” in series [3]; “crystal structures of both Sad WT and Q262R variants with bound NAD^+” in [4] (5 mM NAD+).

In the case of `O=CCCC(=O)O` [succinate semialdehyde], the “App. Ki” value was 0.5 ± 0.1 mM in series [2] and 0.3 ± 0.1 mM in [5]. Further, the X-ray crystallography result in series [4] (covalent, bound to C268, NAD+ present, crystal soaked with 5 mM SSA) is given as “the latter is covalently bound to C268”.

Consider `N[C@@H](CC=O)C(=O)O` [L-aspartic 4-semialdehyde], for which the “homoserine dehydrogenase, NADPH consumption at 340 nm” value in series [6] was “Homoserine dehydrogenase activities of ThrA variants were determined”.

B1: Sad (NAD(P)+-dependent succinate semialdehyde dehydrogenase, SSADH) (Escherichia coli K-12) (protein)
chain: MTITPATHAISINPATGEQLSVLPWAGADDIENALQLAAAGFRDWRETNIDYRAEKLRDIGKALRARSEEMAQMITREMGKPINQARAEVAKSANLCDWYAEHGPAMLKAEPTLVENQQAVIEYRPLGTILAIMPWNFPLWQVMRGAVPIILAGNGYLLKHAPNVMGCAQLIAQVFKDAGIPQGVYGWLNADNDGVSQMIKDSRIAAVTVTGSVRAGAAIGAQAGAALKKCVLELGGSDPFIVLNDADLELAVKAAVAGRYQNTGQVCAAAKRFIIEEGIASAFTERFVAAAAALKMGDPRDEENALGPMARFDLRDELHHQVEKTLAQGARLLLGGEKMAGAGNYYPPTVLANVTPEMTAFREEMFGPVAAITIAKDAEHALELANDSEFGLSATIFTTDETQARQMAARLECGGVFINGYCASDARVAFGGVKKSGFGRELSHFGLHEFCNIQTVWKDRI
notes: dimeric on size exclusion
With B1, in “purified protein [7]” (1 mM NAD+), the Km turned out to be 11 ± 1 µM, the kcat was found to be 85 ± 3 s⁻¹ and the kcat/Km was 7.4e+06 M⁻¹ s⁻¹. In addition, in “purified protein [8]”, the Km was 1,106 ± 92 μM, the kcat came to 3.1 ± 0.2 s⁻¹ and the kcat/Km was determined as 2800 M⁻¹ s⁻¹. In addition, in “purified protein [9]”, the Km was 2,102 ± 328 μM, the kcat stood at 1.1 ± 0.1 s⁻¹ and the kcat/Km amounted to 530 M⁻¹ s⁻¹.

B2: NAD(P)+-dependent succinate semialdehyde dehydrogenase of Escherichia coli (Sad), wild type (enzyme)
chain: B1 chain
notes: Succinate semialdehyde dehydrogenase Sad, E. coli; also called Sad WT; SSADH; source: E. coli BL21(DE3), purified (HisTrap, Superdex 200)
For B2, in series [10], the binding result is recorded as “binds”.

B3: Succinate semialdehyde dehydrogenase Sad, Q262R variant (enzyme, Escherichia coli)
chain: B1 chain with Q262R
notes: Succinate semialdehyde dehydrogenase Sad, E. coli, with Q262R (arose in adaptive laboratory evolution); also called Q262R mutant; source: E. coli BL21(DE3), purified (HisTrap, Superdex 200)
B3: the binding result in series [10] is given as “binds”.

B4: Sad (NAD(P)+-dependent succinate semialdehyde dehydrogenase, SSADH) (Escherichia coli K-12; Q262R) (protein)
chain: B1 chain with Q262R
notes: dimeric on size exclusion
In the case of B4, in “purified protein [7]” (1 mM NAD+), the Km is 5 ± 1 µM, the kcat was 87 ± 4 s⁻¹ and the kcat/Km amounted to 1.9e+07 M⁻¹ s⁻¹. In addition, in the series “purified protein [8]”, the Km turned out to be 67 ± 9 µM, the kcat is 19 ± 1 s⁻¹ and the kcat/Km turned out to be 280000 M⁻¹ s⁻¹. In “purified protein [9]”, the Km was found to be 28 ± 4 µM, the catalytic constant (kcat) came out at 3 ± 0.1 s⁻¹ and the kcat/Km was found to be 110000 M⁻¹ s⁻¹.

B5: GabD (NADP+-dependent SSADH) (Escherichia coli K-12) (protein)
chain: MKLNDSNLFRQQALINGEWLDANNGEAIDVTNPANGDKLGSVPKMGADETRAAIDAANRALPAWRALTAKERATILRNWFNLMMEHQDDLARLMTLEQGKPLAEAKGEISYAASFIEWFAEEGKRIYGDTIPGHQADKRLIVIKQPIGVTAAITPWNFPAAMITRKAGPALAAGCTMVLKPASQTPFSALALAELAIRAGVPAGVFNVVTGSAGAVGNELTSNPLVRKLSFTGSTEIGRQLMEQCAKDIKKVSLELGGNAPFIVFDDADLDKAVEGALASKFRNAGQTCVCANRLYVQDGVYDRFAEKLQQAVSKLHIGDGLDNGVTIGPLIDEKAVAKVEEHIADALEKGARVVCGGKAHERGGNFFQPTILVDVPANAKVSKEETFGPLAPLFRFKDEADVIAQANDTEFGLAAYFYARDLSRVFRVGEALEYGIVGINTGIISNEVAPFGGIKASGLGREGSKYGIEDYLEIKYMCIGL
Consider B5, for which, in “purified protein [7]” (1 mM NADP+), the Km came to 13 ± 1 µM, the kcat came out at 132 ± 2 s⁻¹ and the kcat/Km is 1e+07 M⁻¹ s⁻¹.
